From US9885050B2, “Molecular affinity clamp technology and uses thereof” (The University of Chicago, priority 2007, dated 2018) come the findings set out here.

Read-outs that look alike come from different tables or passages of the source.

The target in assay [1] is T1, ARVCF peptide (PQPVDSWV-COOH) (Homo sapiens, UniProt O00192).
T1 construct: made in house; host or cells: E. coli
Description: Surface plasmon resonance (SPR, BIAcore) analysis of motif binding, ARVCF peptide. From the text:
(§1) Using semi-automated methods, the phage display library was sorted using an eight-residue motif (SEQ ID NO: 148) corresponding to the ARVCF C-terminus. […] The maximal motif/affinity concentrations are indicated. In B, C and F, the on and off rates are also shown on the left and right sides, respectively. […] After four rounds of sorting, two clones with high affinity were identified to the ARVCF peptide motif. ePDZ-a (SEQ ID NO: 149) and ePDZ-b (SEQ ID NO: 150) are thus (referred to as “enhanced PDZ-a” and “enhanced PDZ-b” or simply “ePDZ-a” and “ePDZ-b” respectively) potential affinity clamp candidates.
These two clones were characterized as soluble proteins.
One method to improve affinity of the affinity clamp is to improve the interaction interface of the enhancer domain (e.g. the FN3 domain). […] The two second-generation variants, ePDZ-b1 (SEQ ID NO: 151) and ePDZ-b2 (SEQ ID NO: 143), were prepared as protein samples and their binding properties were analyzed using SPR. […] The affinity enhancement primarily originated from reduced dissociation rates.
A disulfide-constrained peptide was used as an enhancer domain. A peptide-PDZ affinity clamp was designed in which the diversified peptide segment was N-terminal connected to the circularly permutated PDZ domain (cpPDZ) described above. (See, FIG. F1 showing an affinity clamp constructed with Cys-constrained peptide as an enhancer domain in which (A) is a schematic drawing of the affinity clamp. Note that the peptide is attached to the N-terminus of the interaction domain. (B, C) are saturation curves of the parent PDZ (B) and peptide-PDZ Affinity Clamp (C) determined using surface plasmon resonance (SPR). SPR experiments were performed in the equilibrium mode, and the SPR response is plotted as a function of the concentration of the target peptide. The target peptide fused to the yeast SUMO protein was used in these measurements. The curves show the best fit of the 1:1 binding model to the data. The Kd values are also shown.)

For assay [2], the target named is T2, δ-catenin peptide (PASPDSWV-COOH) (Homo sapiens, UniProt Q9UQB3).
T2 construct: yeast SUMO (N); made in house
Description: Surface plasmon resonance (SPR, BIAcore) analysis of motif binding, δ-catenin peptide. As to conditions: for Kd: SPR.
Description: as §1
The binding specificity of the ePDZ clones was investigated. In addition to the ARVCF motif, wild-type erbin PDZ also binds to the C-terminus of δ-catenin with a low μM Kd. The two sequences differ only at positions outside the core recognition motif, DSWV (SEQ ID NO: 69) —COOH (Table 2). The affinity enhancement of ePDZ-a was similar for both targets. Remarkably, the ePDZ-b clone had very weak binding to δ-catenin, similar to the wild-type PDZ domain, showing that ePDZ-b discriminates between the two targets by ˜200 fold. Equally importantly, ePDZ-b discriminates amino acids outside the DSWV-COOH motif shared by the two peptides (Table 2), and thus, it expanded the size of the target motif. The improved specificity is consistent with the molecular affinity clamp design where the enhancer domain binds to the motif surface presented on the PDZ domain and thus can “read” the motif sequence (FIG. C2).

Assay [3] deals with Ala-substituted ARVCF peptide (positions −7 to −4). In words: Alanine-scanning of the ARVCF peptide by SPR. The format is binding. As to conditions: positions −7 to −4. The procedure:
To complement the library sorting experiments described above, Ala-scanning experiments of the ARVCF peptide were performed. When the goal is to define differences in the ability of ePDZ-a and ePDZ-b1 to recognize the differences between the ARVCF and δ-catenin peptides, only those positions that differ between the two peptides are analyzed.
Consistent with the peptide library sorting results, the ePDZ-b family was sensitive to Ala substitution mutations at all positions between −4 and −7. […] The results are shown in terms of changes in free energy change (ΔG=−RT ln(Kd^mutant/Kd^wild type)). […] The tested positions are −7 to −4 in the ARVCF peptide (PQPVDSWV-COOH; mutated positions are underlined). For each mutant, binding affinity was determined using surface plasmon resonance as described previously for the wild-type ARVCF peptide (69).

Assay [4] concerns SUMO-ARVCF fusion protein. Description: Western blotting of SUMO-ARVCF fusion protein in E. coli lysate. The format is binding. The following applies: E. coli lysate containing 5 nanograms SUMO-ARVCF. From the text: The PDZ-FN3 affinity clamps functioned well in Western blotting and in immunoprecipitation (pull down) assays. […] Lane 6 is a negative control for the secondary, anti-FLAG antibody. In FIG. C6B, pull-down (immunoprecipitation), biotinylated ePDZ's and streptavidin (SA)-magnetic beads were used. The input (I), unbound (U), wash (W) and bound (B) fractions were separated with SDS-PAGE and detected with CBB. Note that this is not Western blotting, which would have given higher sensitivity and specificity. […] Note that most of nonspecific binding is due to the SA-magnetic beads (lane 13). […] It is noted that the relatively low recovery of the target in the pull-down assays may be due to the fact that the off-rate was optimized for these clamps (FIG. C3).

The target of a further assay is T3, ARVCF peptide (Homo sapiens, UniProt O00192).
T3 construct: made in house; host or cells: E. coli
Description: IC50 for the ARVCF peptide (Table 4). The format is binding.

B1: ePDZ-a: affinity clamp: circularly permutated erbin PDZ fused to engineered FN3, SEQ ID NO: 149, selected for ARVCF peptide (protein)
chain: MKHHHHHHHHHHSSDYKDDDDKGENLYFQGSPELGFSISGGVGGRGNPFRPDDDGIFVTRVQPEGPASKLLQPGDKIIQANGYSFINIEHGQAVSLLKTFQNTVELIIVREVGNGAKQEIRVRVEKDGGSGGVSSVPTNLEVVAATPTSLLISWDASYYGVSYYRITYGETGGNSPVQEFTVPYSSSTATISGLKPGVDYTITVYAYSDYYGSHHYSPISINYRT
Consider B1, for which the equilibrium dissociation constant (Kd) came to 56 nM in assay [1] (Table 2, SPR, read-out: Kd, ARVCF PQPVDSWV); 56 ± 6 nM in assay [1] (Table 4, SPR, read-out: Kd [nM] ARVCF); 430 nM in assay [2] (Table 2, read-out: Kd, δ-catenin PASPDSWV); 429 nM in assay [2] (Table 4, read-out: Kd [nM] δ-catenin). Moreover, in assay [1] (for the ARVCF peptide, SPR), the koff is given as 1.5 × 10^−2 S^−1. The kon in assay [1] (for the ARVCF peptide, SPR) was 2.9 × 10^5 M^−1S^−1. Further, the “Affinity Enhancement” value in assay [1] (ratio of Kd of parent protein (cpPDZFN) for ARVCF to that of the affinity clamp) stood at 520. In assay [2] (ratio of Kd for δ-catenin to Kd for ARVCF), the “Specificity Index” value stood at 8. Also, the “sensitivity to Ala substitutions of the ARVCF peptide” value in assay [3] is reported as “much less sensitive to the Ala substitutions”. The “detection of target in Western blotting” value in assay [4] is recorded as “detected the target”. This molecule also had a concentration for half-maximal inhibition (IC50) in the assay with ARVCF peptide of 40 nM.
